Laboratory results from patent US20040253632A1.
Like-named read-outs stand apart in the source and are kept apart here.

How the values were obtained:
Assay in all cases: cell-based or functional assay
[1] = target: DO11.10 TCR (endogenous T cell receptor of the DO11.10 T cell hybridoma)
[2] = target: DO11.10 TCR (endogenous T cell receptor of the DO11.10 T cell hybridoma); remark: listed apart in the source
[3] = target: DO11.10 scTCR/murine CD3ζ fusion molecule (membrane-bound, on transfected cells) (mouse) (UniProt P24161)
Sequence of UniProt P24161 (P24161 whole entry, the tested form may be a part): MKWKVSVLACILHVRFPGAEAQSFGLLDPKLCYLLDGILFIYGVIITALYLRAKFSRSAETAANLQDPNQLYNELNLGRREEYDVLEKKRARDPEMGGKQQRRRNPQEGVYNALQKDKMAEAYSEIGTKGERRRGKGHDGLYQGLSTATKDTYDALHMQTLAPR

[4] = target: 2B4 TCR (endogenous T cell receptor of the 2B4 T cell hybridoma) (mouse)

Substance | IL-2 ELISA value; DO11.10 T cells; 7 ng complex/well [1] [A405] | IL-2 ELISA value; DO11.10 T cells; 15 ng complex/well [1] [A405] | IL-2 ELISA value; DO11.10 T cells; 31 ng complex/well [1] [A405] | IL-2 ELISA value; DO11.10 T cells; 62 ng complex/well [1] [A405] | IL-2 ELISA value; DO11.10 T cells; 125 ng complex/well [1] [A405] | IL-2 ELISA value; DO11.10 T cells; 250 ng complex/well [1] [A405] | IL-2 ELISA value; DO11.10 T cells; 100 ng complex/well [2] [A405] | IL-2 ELISA value; DO11.10 scTCR 2B4 transfectants; 7 ng complex/well [3] [A405] | IL-2 ELISA value; DO11.10 scTCR 2B4 transfectants; 15 ng complex/well [3] [A405] | IL-2 ELISA value; DO11.10 scTCR 2B4 transfectants; 31 ng complex/well [3] [A405] | IL-2 ELISA value; DO11.10 scTCR 2B4 transfectants; 62 ng complex/well [3] [A405] | IL-2 ELISA value; DO11.10 scTCR 2B4 transfectants; 125 ng complex/well [3] [A405] | IL-2 ELISA value; DO11.10 scTCR 2B4 transfectants; 250 ng complex/well [3] [A405] | IL-2 ELISA value; DO11.10 T cells; 12.5 ng complex/well [2] [A405] | IL-2 ELISA value; DO11.10 T cells; 25 ng complex/well [2] [A405] | IL-2 ELISA value; DO11.10 T cells; 50 ng complex/well [2] [A405] | other results
scIA^d/GD-IgM fusion (scIA^d/GD fused to CH2-CH3-CH4 of human IgM heavy chain), multi-valent (from UniProt P01871 106-453) (peptide-MHC) | 0.148 | 0.14 | 0.165 | 0.157 | 0.18 | 0.193 | 0.221 | 0.213 | 0.199 | 0.226 | 0.224 | 0.233 | 0.224 |  |  |  | IL-2 ELISA value; DO11.10 T cells; 1 ng complex/well [1]: 0.153 A405; IL-2 ELISA value; DO11.10 T cells; 3 ng complex/well [1]: 0.14 A405; IL-2 ELISA value; DO11.10 T cells; 0.3 ng complex/well [2]: 0.189 A405; IL-2 ELISA value; DO11.10 T cells; 1 ng complex/well [2]: 0.184 A405; IL-2 ELISA value; DO11.10 T cells; 4 ng complex/well [2]: 0.179 A405; IL-2 ELISA value; DO11.10 T cells; 11 ng complex/well [2]: 0.188 A405; IL-2 ELISA value; DO11.10 T cells; 33 ng complex/well [2]: 0.206 A405; IL-2 ELISA value; DO11.10 T cells; 300 ng complex/well [2]: 0.248 A405; IL-2 ELISA value; BWDZ:CD4+ transfectants; 40 ng complex/well [3]: 0.282 A405; IL-2 ELISA value; BWDZ:CD4+ transfectants; 200 ng complex/well [3]: 0.309 A405; IL-2 ELISA value; BWDZ:CD4+ transfectants; 1000 ng complex/well [3]: 0.375 A405; IL-2 ELISA value; DO11.10 scTCR 2B4 transfectants; 1 ng complex/well [3]: 0.196 A405; IL-2 ELISA value; DO11.10 scTCR 2B4 transfectants; 3 ng complex/well [3]: 0.19 A405
scIA^d/GD-IgG multimer (scIA^d/GD-Cκ fusion with scIA^d/GD-IgG2b heavy chain fusion) (peptide-MHC) |  |  |  |  |  |  | 0.166 |  |  |  |  |  |  | 0.159 | 0.166 | 0.155 | 
multi-valent scIA^d/OVA-BirA complexes (biotinylated scIA^d/OVA-BirA bound to avidin) (from UniProt P02701 25-152) (peptide-MHC) |  |  |  |  |  |  |  |  |  |  |  |  |  |  |  |  | IL-2 ELISA value; DO11.10 cells; 31 ng complex/well [2]: 0.554 A450; IL-2 ELISA value; DO11.10 cells; 62 ng complex/well [2]: 0.744 A450; IL-2 ELISA value; DO11.10 cells; 125 ng complex/well [2]: 0.916 A450; IL-2 ELISA value; DO11.10 cells; 500 ng complex/well [2]: 1.6 A450; IL-2 ELISA value; DO11.10 cells; 1000 ng complex/well [2]: 1.86 A450
single-chain IA^d linked to OVA 323-339 (scIA^d/OVA), monovalent (peptide-MHC) | 0.236 | 0.397 | 0.646 | 1.03 | 1.06 | 0.665 | 3.06 | 0.236 | 0.397 | 0.646 | 1.03 | 1.06 | 1.06 | 0.176 | 0.209 | 1.19 | mean IL-2 absorbance reading of eight DMSO control wells (assay plate 5-2); DO11.10 T cells on 50 ng/well scIA^d/OVA [2]: 2.2 A450
single-chain IE^k linked to PCC 88-104 (scIE^k/PCC) (peptide-MHC) |  |  |  |  |  |  |  |  |  |  |  |  |  |  |  |  | IL-2 ELISA absorbance; 2B4 T cells; 12.5 ng/well immobilized scIE^k/PCC [4]: 0.054 A450; IL-2 ELISA absorbance; 2B4 T cells; 25 ng/well immobilized scIE^k/PCC [4]: 0.081 A450; IL-2 ELISA absorbance; 2B4 T cells; 50 ng/well immobilized scIE^k/PCC [4]: 0.234 A450; IL-2 ELISA absorbance; 2B4 T cells; 100 ng/well immobilized scIE^k/PCC [4]: 0.413 A450; IL-2 ELISA absorbance; 2B4 T cells; 200 ng/well immobilized scIE^k/PCC [4]: 0.485 A450; IL-2 ELISA absorbance; 2B4 T cells; 400 ng/well immobilized scIE^k/PCC [4]: 0.216 A450
